According to publication doi:10.1101/2020.03.02.974154 (bioRxiv, 2020):

Biological target: the molecule itself
Assay: cryo-EM structure

B1: full-length chicken acid-sensing ion channel 1a (cASIC1a) (natural protein, Gallus gallus, UniProt Q1XA76 1-527, looked up)
chain: MMDLKVDEEEVDSGQPVSIQAFASSSTLHGISHIFSYERLSLKRVVWALCFMGSLALLALVCTNRIQYYFLYPHVTKLDEVAATRLTFPAVTFCNLNEFRFSRVTKNDLYHAGELLALLNNRYEIPDTQTADEKQLEILQDKANFRNFKPKPFNMLEFYDRAGHDIREMLLSCFFRGEQCSPEDFKVVFTRYGKCYTFNAGQDGKPRLITMKGGTGNGLEIMLDIQQDEYLPVWGETDETSFEAGIKVQIHSQDEPPLIDQLGFGVAPGFQTFVSCQEQRLIYLPPPWGDCKATTGDSEFYDTYSITACRIDCETRYLVENCNCRMVHMPGDAPYCTPEQYKECADPALDFLVEKDNEYCVCEMPCNVTRYGKELSMVKIPSKASAKYLAKKYNKSEQYIGENILVLDIFFEALNYETIEQKKAYEVAGLLGDIGGQMGLFIGASILTVLELFDYAYEVIKHRLCRRGKCRKNHKRNNTDKGVALSMDDVKRHNPCESLRGHPAGMTYAANILPHHPARGTFEDFTC
  stoichiometry N: 3
